Each block holds one molecule with its values, some of them ahead of it.
T1: human plasma-derived complement C4 binding protein (C4BP; manufactured by BioMed) (human, UniProt P04003 49-597; P20851 18-252)
T1 construct: mature; Bought plasma protein; also called Human C4BP
T1 sequence (looked up) 1: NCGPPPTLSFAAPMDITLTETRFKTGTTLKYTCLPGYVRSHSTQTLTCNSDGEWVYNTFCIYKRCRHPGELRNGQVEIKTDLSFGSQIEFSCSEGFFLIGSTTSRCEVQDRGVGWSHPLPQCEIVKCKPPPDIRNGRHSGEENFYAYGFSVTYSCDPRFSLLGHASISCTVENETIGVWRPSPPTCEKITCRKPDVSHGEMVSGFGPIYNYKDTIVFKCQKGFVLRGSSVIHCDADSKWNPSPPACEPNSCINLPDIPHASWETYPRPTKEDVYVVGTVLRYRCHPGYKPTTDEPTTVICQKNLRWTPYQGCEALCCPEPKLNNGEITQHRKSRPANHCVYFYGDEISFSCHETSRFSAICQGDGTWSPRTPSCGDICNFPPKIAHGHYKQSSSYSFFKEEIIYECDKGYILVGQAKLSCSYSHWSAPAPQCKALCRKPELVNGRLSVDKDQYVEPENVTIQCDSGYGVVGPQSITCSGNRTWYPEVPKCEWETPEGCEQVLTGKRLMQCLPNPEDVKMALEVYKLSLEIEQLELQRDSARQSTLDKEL
T1 sequence (looked up) 2: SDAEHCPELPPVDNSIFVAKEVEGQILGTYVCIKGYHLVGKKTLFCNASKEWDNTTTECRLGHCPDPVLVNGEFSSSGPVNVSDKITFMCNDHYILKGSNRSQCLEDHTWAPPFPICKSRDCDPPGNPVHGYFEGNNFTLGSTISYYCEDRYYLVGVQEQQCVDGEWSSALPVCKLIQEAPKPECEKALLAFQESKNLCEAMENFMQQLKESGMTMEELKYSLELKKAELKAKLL

B1: recombinant human CD14 protein (manufactured by R&D systems) (receptor, UniProt P08571 20-352, looked up)
chain: TTPEPCELDDEDFRCVCNFSEPQPDWSEAFQCVSAVEVEIHAGGLNLEPFLKRVDADADPRQYADTVKALRVRRLTVGAAQVPAQLLVGALRVLAYSRLKELTLEDLKITGTMPPLPLEATGLALSSLRLRNVSWATGRSWLAELQQWLKPGLKVLSIAQAHSPAFSCEQVRAFPALTSLDLSDNPGLGERGLMAALCPHKFPAIQNLALRNTGMETPTGVCAALAAAGVQPHSLDLSHNSLRATVNPSAPRCMWSSALNSLNLSFAGLEQVPKGLPAKLRVLDLSCNRLNRAPQPDELPEVDNLTLDGNPFLVPGTALPHEGSMNSGVVPAC
notes: Bought
B2: MSPS, purified recombinant human Protein S obtained from FUT8 knockout CHO/DG44 cells (other)
chain: ANSLLEETKQGNLERECIEELCNKEEAREVFENDPETDYFYPKYLVCLRSFQTGLFTAARQSTNAYPDLRSCVNAIPDQCSPLPCNEDGYMSCKDGKASFTCTCKPGWQGEKCEFDINECKDPSNINGGCSQICDNTPGSYHCSCKNGFVMLSNKKDCKDVDECSLKPSICGTAVCKNIPGDFECECPEGYRYNLKSKSCEDIDECSENMCAQLCVNYPGGYTCYCDGKKGFKLAQDQKSCEVVSVCLPLNLDTKYELLYLAEQFAGVVLYLKFRLPEISRFSAEFDFRTYDSEGVILYAESIDHSAWLLIALRGGKIEVQLKNEHTSKITTGGDVINNGLWNMVSVEELEHSISIKIAKEAVMDINKPGPLFKPENGLLETKVYFAGFPRKVESELIKPINPRLDGCIRSWNLMKQGASGIKEIIQEKQNKHCLVTVEKGSYYPGSGIAQFHIDYNNVSSAEGWHVNVTLNIRPSTGTGVMLALVSGNNTVPFAVSLVDSTSEKSQDILLSVENTVIYRIQALSLCSDQQSHLEFRVNRNNLELSTPLKIETISHEDLQRQLAVLDKAMKAKVATYLGGLPDVPFSATPVNAFYNGCMEVNINGVQLDLDEAISKHNDIRAHSCPSVWKKTKNS
modifications: gamma-carboxylated glutamic acid (Gla) in the Gla domain; complex type N-glycoside-linked sugar chains without fucose (fucose not detected)
notes: It differs from KCPS only in glycosylation (no core fucose); also called fucose-free recombinant Protein S
B3: KCPS, purified recombinant human Protein S obtained from CHO/DG44 cells (other)
chain: B2 chain
modifications: gamma-carboxylated glutamic acid (Gla) in the Gla domain; complex type N-glycoside-linked sugar chains with fucose (Fuc 0.69 per Man 3.00)
notes: It differs from MSPS only in glycosylation (highest core fucose ratio)
B4: human plasma-derived Protein S (manufactured by Calbiochem) (other)
chain: B2 chain
modifications: gamma-carboxylated glutamic acid (Gla) in the N-terminal Gla domain; complex type N-glycoside-linked sugar chains (Asn458, Asn468, Asn489), partly with core alpha1,6-fucose (Fuc 0.26 per Man 3.00)
notes: Bought protein purified from human plasma; also called native Protein S; Human plasma Protein S
B5: Lens culinaris agglutinin (LCA) lectin (manufactured by Vector Laboratories) (other)
chain 1: TETTSFSITKFSPDQKNLIFQGDGYTTKGKLTLTKAVKSTVGRALYSTPIHIWDRDTGNVANFVTSFTFVIDAPSSYNVADEFTFFIAPVDTKPQTGGGYLGVFNSKEYDKTSQTVAVEFDTFYNAAWDPSNKERHIGIDVNSIKSVNTKSWNLQNGERANVVIAFNAATNVLTVTLTYP
chain 2: VTSYTLNEVVPLKDVVPEWVRIGFSATTGAEFAAHEVHSWSFHSELGGTSSS
notes: A lectin; also called lentil lectin

Experiments:
[1] = molecular target: human plasma-derived Protein S (manufactured by Calbiochem) (human) (UniProt P07225); assay: SPR (Biacore T100), Protein S immobilised on CM5, C-17 as analyte
[2] = molecular target: MSPS, purified recombinant human Protein S obtained from FUT8 knockout CHO/DG44 cells (human) (UniProt P07225); assay: SPR (Biacore T100), MSPS immobilised on CM5, C-17 as analyte
[3] = molecular target: KCPS, purified recombinant human Protein S obtained from CHO/DG44 cells (human) (UniProt P07225); assay: SPR (Biacore T100), KCPS immobilised on CM5, C-17 as analyte
[4] = molecular target: B2; assay: SPR (Biacore T100), Protein S immobilised on C1 chip, CD14 as analyte
Procedure: Using an amine coupling kit, human plasma-derived Protein S, and recombinant human Protein S prepared in Example 3, MSPS were respectively immobilized at 700 to 800 RU on flow cells of a Series S C1 sensor chip (manufactured by Biacore). Then, the experiment was carried out in the same manner as in Example 5, using a recombinant human CD14 protein (manufactured by R&D systems) diluted to given concentrations (25000, 12500, 6250, 3125, and 1562 ng/mL) using HBS-EP+buffer (manufactured by Biacore), as an analyte.

[5] = molecular target: T1, human plasma-derived complement C4 …; assay: SPR (Biacore T100), MSPS immobilised on CM5, C4BP as analyte
From the text: (§1) Using an amine coupling kit (manufactured by Biacore), human plasma-derived Protein S (manufactured by Calbiochem), and recombinant human Protein S prepared in Example 4, MSPS and KCPS were respectively immobilized on flow cells of a CM5 sensor chip (manufactured by Biacore). An immobilized amount of the ligand protein on the respective flow cells was set to the range of 1500 to 2000 RU. Then, an anti-human Protein S antibody C-17 (manufactured by Santa Cruz) (FIG. 7), or a human plasma-derived complement C4 binding protein (manufactured by BioMed) diluted to given concentrations (50000, 25000, 12500, 6250, 3125, and 1562 ng/mL) using HBS-EP+buffer (manufactured by Biacore), as an analyte, was allowed to run and bind to the ligand-immobilized flow cells at a temperature of 25° C., a flow rate of 5 μL/min, association time of 140 seconds, and dissociation time of 240 seconds. The anti-human Protein S antibody C-17 and the human plasma-derived complement C4 binding protein are known to bind to the sex hormone-binding globulin-like domain (SHBG domain) at the carboxyl terminal of Protein S. The chip was regenerated by a flow of an aqueous glycine solution (pH 1.5) (manufactured by Biacore) for 60 seconds. Dissociation constants calculated by analysis of the obtained data using Biacore T100 evaluation software ver 1.1 (manufactured by Biacore) are given in Table 2 below.

[6] = molecular target: T2, recombinant human RAGE-Fc fusion protein (manufactured by R&D Systems) (human, UniProt Q15109 24-344); assay: SPR (Biacore T100), Protein S immobilised on CM5, RAGE-Fc as analyte
T2 construct: Bought fusion protein; also called recombinant soluble RAGE-human IgG1 Fc chimeric protein; not shown: Fc of human IgG1

[7] = molecular target: T1, human plasma-derived complement C4 …; assay: SPR (Biacore T100), KCPS immobilised on CM5, C4BP as analyte
From the text: as §1

[8] = molecular target: T1, human plasma-derived complement C4 …; assay: SPR (Biacore T100), Protein S immobilised on CM5, C4BP as analyte
From the text: as §1

[9] = molecular target: T3, human plasma-derived antithrombin III (manufactured by Calbiochem) (human, UniProt P01008 33-464, four asparagine-linked sugar chains without core alpha1,6-fucose); assay: SPR (Biacore T100), antithrombin III immobilised on CM5 chip, LCA as analyte
T3 construct: mature; Bought plasma protein; also called human plasma antithrombin III
Procedure: The abscissa represents time (seconds), and the ordinate represents a binding activity of LCA to a glycoprotein on a sensor chip of Biacore T100. From the top, each sensorgram represents a value obtained when LCA was allowed to run at concentrations of 50000, 25000, 12500, 6250, 3125 and 0 ng/mL. The top represents the binding between human plasma Protein S and LCA, and the bottom represents the binding between human plasma antithrombin III and LCA.
Next, in order to analyze the binding mode of fucose added to the sugar chain of the human plasma-derived Protein S, the binding between core α1,6-fucose-specific lectin, Lens culinaris agglutinin (LCA) lectin and Protein S was analyzed by surface plasmon resonance. Using an amine coupling kit (manufactured by Biacore), human plasma-derived Protein S (manufactured by Calbiochem) and human plasma-derived antithrombin III (manufactured by Calbiochem) were respectively immobilized on flow cells of a CM5 sensor chip (manufactured by Biacore). The human plasma-derived antithrombin III is a glycoprotein having four asparagine-linked sugar chains, but these sugar chains are known not to have core α1,6-fucose (WO2005/035563). An immobilized amount of the ligand protein on the respective flow cells was set to the range of 2000 to 3000 resonance units (hereinafter referred to as “RU”). […]

T3 sequence (P01008 33-464): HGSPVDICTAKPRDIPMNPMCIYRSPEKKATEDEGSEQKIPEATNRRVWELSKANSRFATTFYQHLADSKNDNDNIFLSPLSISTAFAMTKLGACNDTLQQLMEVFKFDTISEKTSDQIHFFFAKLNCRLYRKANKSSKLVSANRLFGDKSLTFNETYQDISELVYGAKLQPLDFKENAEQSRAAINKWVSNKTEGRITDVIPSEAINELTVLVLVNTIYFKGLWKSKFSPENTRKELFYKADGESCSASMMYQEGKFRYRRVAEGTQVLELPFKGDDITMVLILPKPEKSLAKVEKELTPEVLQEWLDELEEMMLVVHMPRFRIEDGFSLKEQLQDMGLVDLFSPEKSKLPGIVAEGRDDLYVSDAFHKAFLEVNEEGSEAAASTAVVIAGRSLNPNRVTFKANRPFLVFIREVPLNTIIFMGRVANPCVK
T2 sequence (Q15109 24-344 limits assumed): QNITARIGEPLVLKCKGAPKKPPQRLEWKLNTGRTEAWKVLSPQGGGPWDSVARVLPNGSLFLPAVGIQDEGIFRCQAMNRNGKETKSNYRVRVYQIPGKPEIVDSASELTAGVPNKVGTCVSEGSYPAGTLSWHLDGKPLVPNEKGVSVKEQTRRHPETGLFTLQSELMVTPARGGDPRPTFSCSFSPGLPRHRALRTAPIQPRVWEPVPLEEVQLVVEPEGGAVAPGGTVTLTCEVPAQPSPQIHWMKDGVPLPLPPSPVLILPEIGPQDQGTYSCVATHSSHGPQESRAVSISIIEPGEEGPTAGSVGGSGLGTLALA

Kd [1]: 0.23 µM
Kd [2]: 0.24 µM
Kd [3]: 0.22 µM
Molecule: anti-human Protein S antibody C-17 (manufactured by Santa Cruz)

Molecule: B1
binding result [4]: binds

Molecule: B2
Kd [5]: 0.092 µM
fold affinity for RAGE against human plasma Protein S [6]: ~7 fold

Molecule: B3
Kd [7]: 0.081 µM

Molecule: B4
Kd [8]: 0.101 µM

Molecule: B5
binding result [9]: no binding (tested: 50000 ng/mL)

Source: patent publication US20100162418A1 (Kyowa Kirin, published 2010)
